Data on four molecules can be found in patent publication US20210253688A1 (UCB, published 2021).

Some results are limits rather than exact numbers.

B2: human Gremlin-1 (full length; recombinant human Gremlin 1) (ligand)
chain: KKKGSQGAIPPPDKAQHNDSEQTQSPQQPGSRNRGRGQGRGTAMPGEEVLESSQEALHVTERKYLKRDWCKTQPLKQTIHEEGCNSRTIINRFCYGQCNSFYIPRHIRKEEGSFQSCSFCKPKKFTTMMVTLNCPELQPPTKKKRVTRVKQCRCISIDLD

In one experiment the target is T1, BMP4/7 heterodimer (human, UniProt P12644 293-408; P18075 293-431).
T1 sequence (looked up) 1: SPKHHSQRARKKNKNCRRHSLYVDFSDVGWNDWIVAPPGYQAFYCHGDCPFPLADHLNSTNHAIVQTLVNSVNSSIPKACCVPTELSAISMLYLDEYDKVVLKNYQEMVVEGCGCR
T1 sequence (looked up) 2: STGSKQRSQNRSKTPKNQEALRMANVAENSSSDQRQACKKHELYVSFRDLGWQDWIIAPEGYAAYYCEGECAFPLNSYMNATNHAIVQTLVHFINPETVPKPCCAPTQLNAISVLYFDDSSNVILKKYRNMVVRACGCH
Kind of experiment: cell-based or functional assay.

Experiment [1] has as its target B2. Kind of experiment: cell-based or functional assay.
For the next experiment, the target named is T2, mouse Gremlin (mouse, UniProt O70326 25-184).
T2 sequence (looked up): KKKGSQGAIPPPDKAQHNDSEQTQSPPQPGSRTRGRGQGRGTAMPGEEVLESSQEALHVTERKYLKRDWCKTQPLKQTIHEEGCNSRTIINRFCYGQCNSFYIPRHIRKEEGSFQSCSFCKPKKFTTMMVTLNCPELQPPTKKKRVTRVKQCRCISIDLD
Nature of the experiment: cell-based or functional assay.

The target in experiment [2] is B2. Nature of the experiment: SPR, Biacore T200, 25 °C; mIgG captured on anti-mouse Fc, recombinant human Gremlin 1 titrated from 5 nM; average of 5 determinations. Here is the method:
The affinity of anti-Gremlin mIgG for human Gremlin 1 was determined by biamolecular interaction analysis using surface plasmon resonance (SPR) technology on a Biacore T200 system, GE Healthcare Bio-Sciences AB. Anti-Gremlin mIgG was captured by an immobilised anti-mouse Fc surface and Gremlin 1 was titrated over the captured mIgG. The capture ligand (affinipure F(ab′)₂ fragment of goat anti-mouse IgG, Fc fragment specific, 115-006-071, Jackson ImmunoResearch Inc.) was immobilised at 50 μg/ml in 10 mM NaAc, pH 5.0 on flow cell 2 of a CM4 Sensor Chip via amine coupling chemistry, using 600 s activation and deactivation injections, to a level of ˜1600 response units (RU). HBS-EP+ buffer (0.01 M HEPES pH 7.4, 0.15 M NaCl, 3 mM EDTA, 0.05% Surfactant P20) was used as the running buffer with a flow rate of 10 μ1/min. A reference surface was prepared on flow cell 1 by activating and deactivating the surface as for flow cell 2 but omitting the capture ligand.
The assay buffer was HBS-EP+ plus an extra 150 mM NaCl to give a final NaCl concentration of 300 mM plus 1% CMD40. A 60 s injection of anti-Gremlin mIgG (at 5 μg/ml in running buffer) was passed over flow cells 1 and 2 to give a capture level of approximately 100 RU on the immobilised anti-mouse IgG, Fc surface. […]
The kinetic data was determined using Biacore T200 evaluation software.

B1: truncated human Gremlin-1 (E. coli expressed, refolded, N-terminal 6His-TEV tag) (ligand)
chain: MGSSHHHHHHSSGENLYFQGSAMPGEEVLESSQEALHVTERKYLKRDWCKTQPLKQTIHEEGCNSRTIINRFCYGQCNSFYIPRHIRKEEGSFQSCSFCKPKKFTTMMVTLNCPELQPPTKKKRVTRVKQCRCISIDLD
For the molecule B1, the “IC50, Hek-Id1 reporter gene assay, geometric mean (N=2)” value with BMP4/7 heterodimer was 1.7 nM. Turning to B2, in the experiment with BMP4/7 heterodimer, the “IC50, Hek-Id1 reporter gene assay, geometric mean (N=2)” value turned out to be 1.6 nM.

B3: Ab7326 (format in the assay not stated) (antibody, V domains shown)
VH: QVQLVESGAEVKKPGATVKISCKVSGYTFTDYYMHWVQQAPGKGLEWMGLVDPEDGETIYAEKFQGRVTITADTSTDTAYMELSSLRSEDTAVYYCATDARGSGSYYPNHFDYWGQGTLVTVSS
VL: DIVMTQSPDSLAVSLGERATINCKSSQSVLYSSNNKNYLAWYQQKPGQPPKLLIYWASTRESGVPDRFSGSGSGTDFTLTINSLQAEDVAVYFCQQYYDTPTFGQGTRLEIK
B3: the “IC50, Hek-Id1 reporter gene assay, restoration of BMP signalling” value in experiment [1] was 1.3 nM; with mouse Gremlin, 0.2 nM.

B4: Ab7326 mouse full length IgG1 (antibody, V domains shown)
VH: QVQLVESGAEVKKPGATVKISCKVSGYTFTDYYMHWVQQAPGKGLEWMGLVDPEDGETIYAEKFQGRVTITADTSTDTAYMELSSLRSEDTAVYYCATDARGSGSYYPNHFDYWGQGTLVTVSS
VL: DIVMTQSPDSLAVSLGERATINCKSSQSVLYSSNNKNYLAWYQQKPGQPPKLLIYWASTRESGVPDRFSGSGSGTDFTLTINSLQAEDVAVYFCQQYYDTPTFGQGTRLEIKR
notes: also called anti-Gremlin mIgG; UCB Ab7326 mouse IgG1
In general, Kd refers to the equilibrium constant for the complex coming apart. Regarding B4, in experiment [2], the Kd is less than 0.1 nM.
